{
  "source": "paper PMC2881104",
  "target": "regulatory domain of OxyR (NMB0173) from Neisseria meningitidis, reduced form (N. meningitidis)",
  "experiment": "crystal structure; selenomethionine protein, His tag removed, 9 mg/ml in 20 mM Tris pH 7.5, 200 mM NaCl, 2 mM TCEP; reservoir 20% w/v PEG 3350, 0.2 M calcium acetate; 2.4 Å; dimer in the asymmetric unit",
  "data": [
    {"substance": "regulatory domain of OxyR (NMB0173) from Neisseria meningitidis, reduced form (domain or fragment)", "values": [
      {"measurement": "stoichiometry N", "result": 2}
    ]}
  ]
}
